Several values for one entry are separate records, joined by “and”; a condition that tells them apart may be missing. Equal values may be shown once. Read-outs that look alike come from different tables or passages of the source.
Tests used:
[1] = biological target: the molecule itself; assay: cryo-EM structure
[2] = biological target: the molecule itself; assay: cryo-EM structure; remark: listed apart in the source

B1: S210A DegP (enzyme)
chain: AETSSATTAQQMPSLAPMLEKVMPSVVSINVEGSTTVNTPRMPRNFQQFFGDDSPFCQEGSPFQSSPFCQGGQGGNGGGQQQKFMALGSGVIIDADKGYVVTNNHVVDNATVIKVQLSDGRKFDAKMVGKDPRSDIALIQIQNPKNLTAIKMADSDALRVGDYTVAIGNPFGLGETVTSGIVSALGRSGLNAENYENFIQTDAAINRGNAGGALVNLNGELIGINTAILAPDGGNIGIGFAIPSNMVKNLTSQMVEYGQVKRGELGIMGTELNSELAKAMKVDAQRGAFVSQVLPNSSAAKAGIKAGDVITSLNGKPISSFAALRAQVGTMPVGSKLTLGLLRDGKQVNVNLELQQSSQNQVDSSSIFNGIEGAEMSNKGKDQGVVVNNVKTGTPAAQIGLKKGDVIIGANQQAVKNIAELRKVLDSKPSVLALNIQRGDSTIYLLMQ
[1]
  stoichiometry N: 18
[2]
  stoichiometry N: 30 and 60

Source: doi:10.1101/2022.10.17.512556 (bioRxiv, 2022)
